Blank lines part the entries; values can stand above or below the molecule they belong to.
How the values were obtained:
[1] = test system: IGHMBP2;ABT1 (Homo sapiens;Mus musculus); test: MST; details: MST: 100 nM NT-647-labeled IGHMBP2 (+/- 100 nM ABT1), RNA titrated from 1 uM (single) or 500 nM each (two RNAs), buffer, salt, pH and temperature not stated. …
[2] = biological target: T1, immunoglobulin mu DNA binding protein 2 (IGHMBP2), human, full length, thioredoxin-6xHis fusion from pET32b (human, UniProt P38935 1-993, RED-Tris-NTA (NT-647) fluorescent label in the MST); test: cell-based or functional assay
T1 sequence (looked up): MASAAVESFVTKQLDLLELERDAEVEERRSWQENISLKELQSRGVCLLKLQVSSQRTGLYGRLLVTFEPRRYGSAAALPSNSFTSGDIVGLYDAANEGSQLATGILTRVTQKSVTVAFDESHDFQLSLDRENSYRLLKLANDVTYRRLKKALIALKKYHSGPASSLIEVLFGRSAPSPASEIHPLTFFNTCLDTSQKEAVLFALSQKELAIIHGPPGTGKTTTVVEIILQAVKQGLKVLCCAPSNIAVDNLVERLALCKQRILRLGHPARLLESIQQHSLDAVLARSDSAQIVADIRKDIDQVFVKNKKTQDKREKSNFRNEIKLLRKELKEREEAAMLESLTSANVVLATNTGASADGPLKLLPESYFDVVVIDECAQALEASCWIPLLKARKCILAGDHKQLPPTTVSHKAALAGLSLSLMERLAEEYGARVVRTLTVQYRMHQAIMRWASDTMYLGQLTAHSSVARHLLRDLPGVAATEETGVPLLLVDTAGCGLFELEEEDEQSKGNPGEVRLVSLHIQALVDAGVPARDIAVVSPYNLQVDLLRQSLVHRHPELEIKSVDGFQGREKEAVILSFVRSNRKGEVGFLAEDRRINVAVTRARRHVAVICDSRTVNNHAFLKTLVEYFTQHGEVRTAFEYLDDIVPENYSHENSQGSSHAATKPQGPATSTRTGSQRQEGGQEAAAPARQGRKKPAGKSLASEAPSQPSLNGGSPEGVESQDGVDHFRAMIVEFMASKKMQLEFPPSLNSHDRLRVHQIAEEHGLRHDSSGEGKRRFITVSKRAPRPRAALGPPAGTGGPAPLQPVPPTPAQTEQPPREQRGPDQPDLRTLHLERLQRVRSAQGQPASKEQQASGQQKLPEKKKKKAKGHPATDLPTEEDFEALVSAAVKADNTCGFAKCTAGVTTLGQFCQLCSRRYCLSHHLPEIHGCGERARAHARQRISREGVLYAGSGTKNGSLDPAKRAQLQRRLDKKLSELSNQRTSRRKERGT

[3] = biological target: T1, immunoglobulin mu DNA binding protein 2 …; test: not stated; stoichiometry of ABT1 to IGHMBP2, Supplemental Figure 1; told in the paragraph on DLS, method not given; details: both partners purified
[4] = biological target: T1, immunoglobulin mu DNA binding protein 2 …; test: MST; IGHMBP2 RED-Tris-NTA labelled, constant 100 nM; partner titrated (1 μM to 1.53 × 10^5 μM as printed); fit to a quadratic equation, MO.Affinity Analysis; details: both partners purified

Molecule: U3 snoRNA
Kd [1]: 35 nM

Molecule: 5' ETS RNA + U3 snoRNA (annealed)
Kd ([1]; 100 nM IGHMBP2 + 100 nM ABT1, RNAs from 500 nM each): 28 nM

Molecule: 5' ETS RNA (47S pre-rRNA)
Kd [1]: > 697 nM

ATPase activity of IGHMBP2 (100 nM) with increasing ABT1 up to 120 nM (malachite green, free phosphate), fold increase over IGHMBP2 alone [2]: 1.96 fold | helicase activity of IGHMBP2 (100 nM) with increasing ABT1 up to 120 nM (Cy3-labelled DNA substrate), fold increase over IGHMBP2 alone [2]: 1.41 fold | nucleic acid unwinding rate of TP31-18mer duplex, 100 nM IGHMBP2 + 100 nM ABT1, 1-7 min (IGHMBP2 alone 1.141/min; printed as a 1.42-fold increase) [2]: 5.96 min⁻¹ | rate of DNA substrate unwinding/nM protein, 100 nM IGHMBP2 with ABT1 20-100 nM, 7 min (IGHMBP2 alone 0.005/min; printed as 1.84-fold increased activity) [2]: 0.01 min⁻¹ | stoichiometry N [3]: ~1 | Kd [4]: ~52 nM
B1: activator of basal transcription 1 (ABT1), mouse, full length, GST fusion from pGEX-6P1 (natural protein, UniProt Q9QYL7 1-269, looked up)
chain: MVKAGELVEQQKAAMEEEANAEAAEDQEEPEDTACSSSSKKKKKVVPGIVYLGHVPPRFRPLHVRNLLSAYGEVGRVFFQAEDHFVKRKKKAAAAAGGKKGAKYSKDYTEGWVEFRDKRVAKRVAASLHNTPMGARKRSPFRYDLWNLKYLHRFTWSHLSEHLAFERQVRRQRLRAEVAQAKRETDFYLRNVEQGQHFLAADGDATRPNSSWTFTQRPTEQEFRARKAARPGGRERARLANVEDQARSNRGLLAKIFGAPLPAESKEKP
notes: ABT1, mouse, full-length cDNA synthesized (GenScript), cloned into pGEX6P1; 31 kDa ABT1 + ~26 kDa GST, predicted ~57 kDa; Mouse ABT1 was tested against human IGHMBP2; No cleavage of GST is described; also called GST-ABT1; pGEX-ABT1; source: E. coli (BL21 and Rosetta strains used), purified on GST beads, eluted with reduced glutathione; bacterial cell lysate in the immunoprecipitation
